Reference: patent US20100143379A1 (priority 2005, published 2010)

Legend:
[1] = system: murine bone marrow progenitor cultures; assay: BFU-E and CFU-E erythropoietin-dependent progenitor colony assays; format: cell-based; conditions: 10-100 ng/ml MIF, 1-20 ng/ml TNFα, or 10-100 U/ml IFNγ
Method: Bone marrow cells were harvested, plated in a methylcellulose-based medium, and colony numbers scored after the addition of murine cytokines. Individual assays were performed in duplicate, and the data shown is a compilation of 3-6 independently performed experiments. % inhibition of colony formation is calculated with reference to a cytokine-minus control. All values shown are the mean±SD and are significant when compared to wells with no cytokine addition (P<0.05). CFU-E: colony forming unit—erythroid; BFU-E: burst-forming unit—erythroid.
The two inflammatory cytokines, TNFα and IFNγ, were also studied. TNFα and IFNγ are produced as a consequence of macrophage and T cell activation (McDevitt et al. 2004. Curr Hematol Rep 3:97-106). The appearance of BFU-E and CFU-E were quantified after culture with these cytokines, applied either alone or in combination.
BFU-E and CFU-E Progenitor Cell Assays. The progenitor cell (colony) assays were performed according to the standardized methods described previously (Martiney et al. 2000. Infection and Immunity 68:2259-2267) and protocols from StemCell Technologies (Vancouver; BC, Canada). Briefly, washed murine bone marrow cells were plated in sterile 35-mm dishes containing a methylcellulose-based medium and growth factors. The total number of bone marrow cells plated in duplicate culture dishes were as follows: 2×10^5 for CFU-E and 5×10^5 for BFU-E. MethoCult™ M3334 was utilized for the CFU-E and BFU-E colony assays. The media for CFU-E and BFU-E was volume adjusted by adding 1 part Isocove's MDM to 9 parts MethoCult™ M3334 to give final concentrations of the following components: 15% fetal bovine serum, 1% BSA, […] transferrin, […] insulin, 1% methylcellulose, 10^−4 M 2-mercaptoethanol, 2 mM L-glutamine and 3 units/ml erythropoietin. Each assay of different bone marrow progenitor cells was performed independently 3-6 times.

[2] = system: p53; assay: Ser15-phosphorylated p53 content, macrophages; format: cell-based, mouse; conditions: during apoptosis induction
Method: (§1) Apoptosis Studies. […] Cell lysates were collected, and caspase-3 activity analyzed using a colorimetric assay kit (R&D Systems). Cytoplasmic p53 content was analyzed as described previously (Mitchell et al. (2002). Proc Natl Acad Sci USA 99:345-350) by immunoblotting of mouse cytosolic fractions using a pair of anti-phospho-p53 (Ser15) (R&D Systems) and total anti-p53 antibodies (Cell Signaling); and for COS-7 cells, the anti-p53 (Ser15) and total anti-p53 antibodies (Cell Signaling). In vivo apoptosis studies followed the procedures of (Mitchell et al. (2002). Proc Natl Acad Sci USA 99:345-350), and were conducted after i.p injection of 15 mg/kg lipopolysaccharide (E. coli 0111:B4; Sigma). Mice were sacrificed 24 hrs after priming and the peritoneal macrophage cells collected and immediately analyzed for apoptosis by an ELISA that detects cytoplasmic oligonucleosomes (Roche Diagnostics). Primary macrophages also were immunostained by Alexa 488-conjugated, Annexin V (Invitrogen), and apoptotic cells enumerated by fluorescence microscopy.

[3] = system: CXCR4; assay: Cell surface receptor expression in monocyte-derived macrophages (FACS); format: cell-based; conditions: 50 ng/ml with PMB 10 μg/ml, 48 h
Method: Cell surface expression of CCR5 and CXCR4 was analyzed by FACS after staining with FITC-conjugated anti-CCR5 and PE-conjugated anti-CXCR4 antibodies (Pharmingen). Results (percent of receptor-positive cells) are shown as mean±SE for three performed experiments.
Cell surface expression of CCR5 and CXCR4 was analyzed by FACS after staining with FITC-conjugated anti-CCR5 and PE-conjugated anti-CXCR4 antibodies (Pharmingen) (FIG. 9).

[4] = system: p53; assay: Cytoplasmic Ser15-phosphorylated p53 content, COS-7 cells; format: cell-based; conditions: during apoptosis induction
Method: as §1

[5] = system: primary macrophages; assay: In vitro apoptosis, primary macrophages; format: cell-based, mouse; conditions: MIF 100 ng/ml; dependent on CD74 and CD44
Text: Mice and Primary Cells. Wild-type (BALB/c or C57/B16), CD74-KO, (Shachar et al. (1996). Science 274:106-108), CD44-KO (Teder et al, (2002). Science 296:155-158), and MIF-KO (Bozza et al. (1999). J Exp Med 189:341-346), mice were bred at the Yale Animal Resource Center under strict, pathogen-free conditions. The KO strains were in genetically pure BALB/c or C57/B16 backgrounds (each at generation ≧N10). Mouse embryonic fibroblasts (MEFs) were obtained from 2 week-old embryos as described (Fingerle-Rowson et al. (2003). Proc Natl Acad Sci USA 100:9354-9359). […]
as §1, with “In vivo apoptosis studies followed the procedures of (Mitchell et al. (2002). Proc Natl Acad Sci USA 99:345-350), and were conducted after i.p injection of 15 mg/kg lipopolysaccharide (E. coli 0111:B4; Sigma).” left out

[6] = system: ERK-1/2; assay: ERK-1/2 phosphorylation in murine embryonic fibroblasts and peritoneal macrophages; format: cell-based; conditions: wild-type, CD74-KO and CD44-KO cells
Method: Whole cell lysates then were prepared and analyzed by Western blotting with specific anti-phospho-ERK-1/2 (p-ERK1/2) or anti-total ERK/1/2 antibodies. […] Peritoneal macrophages were stimulated for 10 mins (Mitchell et al. (1999). J Biol Chem 274:18100-6) and the lysates then analyzed by Western blotting. […] Recombinant, sCD74 was incubated with MN overnight in a 3:1 molar ratio prior to addition to cells for 10 mins. Epidermal growth factor (EGF) was used as a positive control for ERK-1/2 phosphorylation (Yamamoto et al. (2003). Develop Biol 260:512-521). Data shown are representative of three experiments.
Signal Transduction Assays. […] The human CD74 ectodomain (CD74^73-232) was prepared recombinantly in soluble form (sCD74) as described previously (Leng et al. (2003). J Exp Med 197:1467-1476). […] Cells then were harvested and lysed in buffer containing 50 mM Hepes, pH7.5, 150 mM NaCl, 1.5 mM MgCl2, 1 mM EGTA, 1% Glycerol and 1% Triton X-100, and freshly added phosphatase and proteinase inhibitors (1 mM orthovanandate, 10 mM NaF, 10 μg/ml leupeptin, 25 μg/ml aprotinin and 50 μg/ml PMSF). For immunoblotting, 15-20 μg of cell lysate proteins were separated by 10% SDS-PAGE and transferred to PVDF Immobilon-P transfer membranes (Millipore). […]

B1: MIF: macrophage migration inhibitory factor; recombinant mouse or human MIF purified essentially free of endotoxin (protein)
chain: PMFIVNTNVPRASVPDGFLSELTQQLAQATGKPPQYIAVHVVPDQLMAFGGSSEPCALCSLHSIGKIGGAQNRSYSKLLCGLLAERLRISPDRVYINYYDMNAANVGWNNSTFA
[1]
  BFU-E and CFU-E colony formation: dose-dependently inhibited
[2]
  cellular content of Ser15-phosphorylated p53: diminution in the cellular content
[3]
  CXCR4 expression: without altering expression of CXCR4
[4]
  intracytoplasmic content of Ser15-phosphorylated p53: reduction in the intracytoplasmic content
[5]
  protection from apoptosis: almost complete
[6]
  ERK-1/2 phosphorylation: induced ERK-1/2 phosphorylation only in wild-type cells
